According to patent US7868138B2, “Methods for generating polynucleotides having desired characteristics by iterative selection and recombination” (priority 1994, dated 2011):

B1: TEM-1: wild-type bacterial TEM-1 betalactamase, gene on a pUC18 derivative (protein, UniProt P62593 24-286, looked up)
Beta-lactamase TEM: HPETLVKVKDAEDQLGARVGYIELDLNSGKILESFRPEERFPMMSTFKVLLCGAVLSRVDAGQEQLGRRIHYSQNDLVEYSPVTEKHLTDGMTVRELCSAAITMSDNTAANLLLTTIGGPKELTAFLHNMGDHVTRLDRWEPELNEAIPNDERDTTMPAAMATTLRKLLTGELLTLASRQQLIDWMEADKVAGPLLRSALPAGWFIADKSGAGERGSRGIIAALGPDGKPSRIVVIYTTGSQATMDERNRQIAEIGASLIKHW

Tests used:
CHO cells = test: Fluorescence spectroscopy of CHO cells expressing GFP; assay type: cell-based, chinese hamster; conditions: 2 mM sodium butyrate, 'wt' construct
Description: The wildtype and the cycle 2 and 3 mutant versions of the GFP gene were transferred into the eukaryotic expression vector Alpha+ (16) as an EcoRI-XbaI fragment. The plasmids were transfected into CHO cells by electroporation of 10^7 cells in 0.8 ml with 40 μg of plasmed at 400V and 250 μF. Transformants were selected using 1 mg/ml G418 for 10-12 days.
Improvements in autonomous characteristics such as self-folding can be tranferable to different cellular environments. After being selected in bacteria, the ‘cycle 3’ mutant GFP was transferred into the eukaryotic Alpha+ vector and expressed in chinese hamster ovary cells (CHO). […] FACS sorting confirmed that the average fluorescence signal of CHO cell clones expressing ‘cycle 3’ was 46-fold greater than cells expressing the ‘wt’ construct (FIG. 18B).

E. coli XL1-blue cells = test: Minimum inhibitory concentration (MIC) of cefotaxime by plating on cefotaxime plates; assay type: cell-based
Description: The minimum inhibitory concentration (MIC) of cefotaxime on bacterial cells lacking a plasmid was determined by plating 10 μl of a 10^−2 dilution of an overnight bacterial culture (about 1000 cfu) of E. coli XL1-blue cells (Stratagene, San Diego Calif.) on plates with varying levels of cefotaxime (Sigma, St. Louis Mo.), followed by incubation for 24 hours at 37° C.
Growth on cefotaxime is sensitive to the density of cells, and therefore similar numbers of cells needed to be plated on each plate (obtained by plating on plain LB plates). Platings of 1000 cells were consistently performed.
Growth on cefotaxime is dependent on the cell density, requiring that all the MICs be standardized (in our case to about 1,000 cells per plate). […] The 5 largest colonies grown at […] were plated for single colonies twice, and the Sfi1 inserts were analyzed by restriction mapping of the colony PCR products.
After selection, the plasmid of selected clones was transferred back into wild-type E. coli XL1-blue cells (Stratagene, San Diego Calif.) to ensure that none of the measured drug resistance was due to chromosomal mutations.

Molecule	increase of the fluorescence signal (CHO cells)	minimum inhibitory concentration of cefotaxime (E. coli XL1-blue cells; 24 hours at 37° C., about 1,000 cells per plate)	MIC (E. coli XL1-blue cells; cefotaxime, mutants in identical plasmid background pUC182Sfi, no literature source in table) [µg/mL]
CCCC(=O)[O-].[Na+] [sodium butyrate]	4-8 fold		
B1		approximately 0.02 μg/ml	0.02
